One block for each binder: values may come before it.
How the values were obtained:
Experiment in all cases: two-hybrid library CCNG1;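 further: natural log of median RNA to DNA barcode read ratio; higher means stronger binding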
4H2223-bN = target: T1, 4H2223-bN
T1 chain: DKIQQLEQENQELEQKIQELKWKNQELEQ

4H754-bA = target: T2, 4H754-bA
T2 chain: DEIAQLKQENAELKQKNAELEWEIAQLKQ

4H796-bN = target: T3, 4H796-bN
T3 chain: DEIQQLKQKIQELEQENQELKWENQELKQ

4H2931-bN = target: T4, 4H2931-bN
T4 chain: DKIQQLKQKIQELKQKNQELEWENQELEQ

4H492-bN = target: T5, 4H492-bN
T5 chain: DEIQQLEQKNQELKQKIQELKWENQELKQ

4H730-bN = target: T6, 4H730-bN
T6 chain: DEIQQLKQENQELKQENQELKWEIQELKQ

4H349-bN = target: T7, 4H349-bN
T7 chain: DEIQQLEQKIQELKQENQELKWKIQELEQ

4H2839-bN = target: T8, 4H2839-bN
T8 chain: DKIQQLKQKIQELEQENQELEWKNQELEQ

4H3277-bN = target: T9, 4H3277-bN
T9 chain: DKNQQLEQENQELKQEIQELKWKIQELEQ

4H2473-bN = target: T10, 4H2473-bN
T10 chain: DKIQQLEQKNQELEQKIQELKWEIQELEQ

4H2253-bN = target: T11, 4H2253-bN
T11 chain: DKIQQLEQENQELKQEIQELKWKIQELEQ

4H3364-bN = target: T12, 4H3364-bN
T12 chain: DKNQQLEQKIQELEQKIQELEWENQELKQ

4H2859-bN = target: T13, 4H2859-bN
T13 chain: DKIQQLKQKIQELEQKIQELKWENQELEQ

4H3381-bN = target: T14, 4H3381-bN
T14 chain: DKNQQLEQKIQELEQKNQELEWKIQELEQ

4H235-bN = target: T15, 4H235-bN
T15 chain: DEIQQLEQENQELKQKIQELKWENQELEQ

4H2915-bN = target: T16, 4H2915-bN
T16 chain: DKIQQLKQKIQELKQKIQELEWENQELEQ

4H2760-bN = target: T17, 4H2760-bN
T17 chain: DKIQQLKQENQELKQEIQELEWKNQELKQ

4H2692-bN = target: T18, 4H2692-bN
T18 chain: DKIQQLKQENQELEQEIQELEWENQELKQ

4H319-bN = target: T19, 4H319-bN
T19 chain: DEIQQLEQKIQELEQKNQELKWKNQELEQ

4H2518-bN = target: T20, 4H2518-bN
T20 chain: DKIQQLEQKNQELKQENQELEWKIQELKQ

4H2588-bN = target: T21, 4H2588-bN
T21 chain: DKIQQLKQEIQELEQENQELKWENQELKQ

4H2444-bN = target: T22, 4H2444-bN
T22 chain: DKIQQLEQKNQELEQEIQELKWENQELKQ

4H477-bN = target: T23, 4H477-bN
T23 chain: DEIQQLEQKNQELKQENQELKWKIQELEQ

4H2438-bN = target: T24, 4H2438-bN
T24 chain: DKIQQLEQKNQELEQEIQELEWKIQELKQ

4H2162-bN = target: T25, 4H2162-bN
T25 chain: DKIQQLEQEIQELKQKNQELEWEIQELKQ

4H2717-bN = target: T26, 4H2717-bN
T26 chain: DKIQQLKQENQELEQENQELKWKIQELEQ

4H56-bN = target: T27, 4H56-bN
T27 chain: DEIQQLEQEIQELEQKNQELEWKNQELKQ

4H932-bN = target: T28, 4H932-bN
T28 chain: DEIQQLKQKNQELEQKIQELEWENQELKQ

4H348-bN = target: T29, 4H348-bN
T29 chain: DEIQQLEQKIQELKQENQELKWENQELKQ

4H2585-bN = target: T30, 4H2585-bN
T30 chain: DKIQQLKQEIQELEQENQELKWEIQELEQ

4H3354-bN = target: T31, 4H3354-bN
T31 chain: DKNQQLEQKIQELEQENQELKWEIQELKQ

4H264-bN = target: T32, 4H264-bN
T32 chain: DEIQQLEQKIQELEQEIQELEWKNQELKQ

4H40-bN = target: T33, 4H40-bN
T33 chain: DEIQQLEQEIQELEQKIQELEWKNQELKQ

O11-bN = target: T34, O11-bN
T34 chain: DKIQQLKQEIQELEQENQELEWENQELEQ

4H2503-bN = target: T35, 4H2503-bN
T35 chain: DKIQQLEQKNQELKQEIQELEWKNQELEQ

4H2143-bN = target: T36, 4H2143-bN
T36 chain: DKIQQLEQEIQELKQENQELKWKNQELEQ

4H3057-bN = target: T37, 4H3057-bN
T37 chain: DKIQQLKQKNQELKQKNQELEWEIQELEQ

4H741-bN = target: T38, 4H741-bN
T38 chain: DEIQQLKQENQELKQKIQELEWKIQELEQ

4H570-bN = target: T39, 4H570-bN
T39 chain: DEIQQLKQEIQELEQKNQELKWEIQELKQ

4H3041-bN = target: T40, 4H3041-bN
T40 chain: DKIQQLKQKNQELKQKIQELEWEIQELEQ

4H2233-bN = target: T41, 4H2233-bN
T41 chain: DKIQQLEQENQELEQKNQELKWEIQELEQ

4H949-bN = target: T42, 4H949-bN
T42 chain: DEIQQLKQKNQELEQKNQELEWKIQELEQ

4H3297-bN = target: T43, 4H3297-bN
T43 chain: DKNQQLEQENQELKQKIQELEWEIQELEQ

O2-bA = target: T44, O2-bA
T44 chain: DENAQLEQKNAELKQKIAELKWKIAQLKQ

O3-bA = target: T45, O3-bA
T45 chain: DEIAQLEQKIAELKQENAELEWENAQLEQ

O6-bA = target: T46, O6-bA
T46 chain: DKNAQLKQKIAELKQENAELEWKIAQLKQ

O16-bA = target: T47, O16-bA
T47 chain: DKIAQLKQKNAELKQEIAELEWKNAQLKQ

O13-bA = target: T48, O13-bA
T48 chain: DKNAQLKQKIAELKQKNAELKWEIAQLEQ

O4-bA = target: T49, O4-bA
T49 chain: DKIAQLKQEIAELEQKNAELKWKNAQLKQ

O14-bA = target: T50, O14-bA
T50 chain: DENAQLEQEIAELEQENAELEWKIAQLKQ

O11-bA = target: T51, O11-bA
T51 chain: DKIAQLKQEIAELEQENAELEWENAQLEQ

O15-bA = target: T52, O15-bA
T52 chain: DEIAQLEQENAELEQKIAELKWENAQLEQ

O5-bA = target: T53, O5-bA
T53 chain: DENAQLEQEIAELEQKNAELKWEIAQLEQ

O12-bA = target: T54, O12-bA
T54 chain: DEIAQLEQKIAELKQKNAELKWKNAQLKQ

O8-bA = target: T55, O8-bA
T55 chain: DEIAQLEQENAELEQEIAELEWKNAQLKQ

O7-bA = target: T56, O7-bA
T56 chain: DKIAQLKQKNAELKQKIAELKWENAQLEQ

O9-bA = target: T57, O9-bA
T57 chain: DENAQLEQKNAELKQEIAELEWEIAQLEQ

P3A = target: T58, P3A
T58 chain: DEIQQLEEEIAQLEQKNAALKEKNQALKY

P4A = target: T59, P4A
T59 chain: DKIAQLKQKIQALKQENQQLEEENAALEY

P2A = target: T60, P2A
T60 chain: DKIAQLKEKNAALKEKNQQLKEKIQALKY

P8A = target: T61, P8A
T61 chain: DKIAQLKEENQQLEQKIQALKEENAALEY

P1A = target: T62, P1A
T62 chain: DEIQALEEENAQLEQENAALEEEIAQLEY

P5A = target: T63, P5A
T63 chain: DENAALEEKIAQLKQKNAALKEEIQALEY

P6A = target: T64, P6A
T64 chain: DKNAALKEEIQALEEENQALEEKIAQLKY

P9A = target: T65, P9A
T65 chain: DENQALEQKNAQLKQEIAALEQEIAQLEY

P7A = target: T66, P7A
T66 chain: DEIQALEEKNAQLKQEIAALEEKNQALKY

4H2444-bA = target: T67, 4H2444-bA
T67 chain: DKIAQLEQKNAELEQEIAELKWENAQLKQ

- interaction score (O2-bA): -0.637
- interaction score (O3-bA): -0.525
- interaction score (O6-bA): -0.9
- interaction score (O16-bA): -0.988
- interaction score (O13-bA): -1.12
- interaction score (O4-bA): 2.16
- interaction score (O14-bA): -0.951
- interaction score (O11-bA): -0.526
- interaction score (O15-bA): -0.971
- interaction score (O5-bA): -0.78
- interaction score (O12-bA): 2.25
- interaction score (O8-bA): -1.31
- interaction score (O7-bA): -0.686
- interaction score (O9-bA): -0.659
B2: O11-bA (peptide)
chain: DKIAQLKQEIAELEQENAELEWENAQLEQ

- interaction score (O2-bA): -0.795
- interaction score (O3-bA): 1.31
- interaction score (O6-bA): 0.643
- interaction score (O16-bA): -0.73
- interaction score (O13-bA): -0.478
- interaction score (O4-bA): 1.27
- interaction score (O14-bA): -0.435
- interaction score (O15-bA): -0.225
- interaction score (O5-bA): -0.511
- interaction score (O12-bA): -1.51
- interaction score (O8-bA): 0.0711
- interaction score (O7-bA): -0.372
- interaction score (O9-bA): 1.04
B3: O12-bA (peptide)
chain: DEIAQLEQKIAELKQKNAELKWKNAQLKQ

More lines, now with the values behind:

B1: 4H2143-bN (peptide)
chain: DKIQQLEQEIQELKQENQELKWKNQELEQ
- interaction score (4H2223-bN): -0.138
- interaction score (4H754-bA): 0.173
- interaction score (4H796-bN): -0.462
- interaction score (4H2931-bN): -0.53
- interaction score (4H492-bN): -0.438
- interaction score (4H730-bN): 0.137
- interaction score (4H349-bN): 0.196
- interaction score (4H2839-bN): -0.0339
- interaction score (4H3277-bN): -0.382
- interaction score (4H2473-bN): -0.596
- interaction score (4H2253-bN): 0.598
- interaction score (4H3364-bN): -0.973
- interaction score (4H2859-bN): -0.319
- interaction score (4H3381-bN): -0.161
- interaction score (4H235-bN): 0.188
- interaction score (4H2915-bN): 0.491
- interaction score (4H2760-bN): -0.843
- interaction score (4H2692-bN): -0.295
- interaction score (4H319-bN): -1.38
- interaction score (4H2518-bN): -0.0822
- interaction score (4H2588-bN): -0.413
- interaction score (4H2444-bN): -1.29
- interaction score (4H477-bN): -0.266
- interaction score (4H2438-bN): 0.267
- interaction score (4H2162-bN): 0.354
- interaction score (4H2717-bN): 0.125
- interaction score (4H56-bN): -0.695
- interaction score (4H932-bN): 0.299
- interaction score (4H348-bN): 0.129
- interaction score (4H2585-bN): -1.01
- interaction score (4H3354-bN): -2.78
- interaction score (4H264-bN): -0.0625
- interaction score (4H40-bN): 0.442
- interaction score (O11-bN): -1.88
- interaction score (4H2503-bN): -0.374
- interaction score (4H2143-bN): 0.45
- interaction score (4H3057-bN): -0.303
- interaction score (4H741-bN): -0.465
- interaction score (4H570-bN): -0.424
- interaction score (4H3041-bN): 0.217
- interaction score (4H2233-bN): -1.37
- interaction score (4H949-bN): -0.46
- interaction score (4H3297-bN): -0.664

B4: P1A (peptide)
chain: DEIQALEEENAQLEQENAALEEEIAQLEY
- interaction score (P3A): -1.69
- interaction score (P4A): -0.87
- interaction score (P2A): 2.6
- interaction score (P8A): -1
- interaction score (P1A): -1.11
- interaction score (P5A): -2.1
- interaction score (P6A): -1.54
- interaction score (P9A): -1.68
- interaction score (P7A): -1.31

B5: 4H2162-bN (peptide)
chain: DKIQQLEQEIQELKQKNQELEWEIQELKQ
- interaction score (4H796-bN): -0.418
- interaction score (4H2931-bN): -1.12
- interaction score (4H730-bN): -0.649
- interaction score (4H349-bN): 0.391
- interaction score (4H2253-bN): -0.654
- interaction score (4H3364-bN): -0.416
- interaction score (4H2859-bN): 0.571
- interaction score (4H3381-bN): -0.622
- interaction score (4H235-bN): -0.0614
- interaction score (4H2760-bN): -0.495
- interaction score (4H2518-bN): 0.614
- interaction score (4H2444-bN): -1.27
- interaction score (4H2162-bN): 1.61
- interaction score (4H56-bN): -0.33
- interaction score (4H932-bN): -0.305
- interaction score (4H2585-bN): 0.615
- interaction score (4H264-bN): -0.799
- interaction score (4H2444-bA): -0.359
- interaction score (4H3041-bN): 1.18
- interaction score (4H2233-bN): -0.887
- interaction score (4H949-bN): -1.05
- interaction score (4H3297-bN): -0.173

Reference: PMC10397247
